Where two headings read alike, the source gives them in different places.
Legend:
[1] = molecular target: T1, extracellular domain of the IL-4Rα (IL-4 binding protein) (UniProt P24394 26-232, limits assumed, biotinylated at Cys-206); assay: biosensor (BIA2000), IL4BP biotinylated at Cys-206 on a streptavidin matrix, 25 C
T1 construct: extracellular domain; Immobilised on the streptavidin-coated matrix of the biosensor through biotin at Cys-206; also called IL4BP; IL-4 specific receptor
T1 sequence (looked up): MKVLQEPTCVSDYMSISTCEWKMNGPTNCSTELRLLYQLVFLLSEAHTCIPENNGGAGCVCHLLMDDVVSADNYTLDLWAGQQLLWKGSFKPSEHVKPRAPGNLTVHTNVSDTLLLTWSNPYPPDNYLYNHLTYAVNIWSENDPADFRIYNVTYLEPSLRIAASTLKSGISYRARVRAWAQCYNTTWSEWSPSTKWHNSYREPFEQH

[2] = molecular target: T1, extracellular domain of the IL-4Rα …; assay: as above; remark: listed apart in the source
[3] = molecular target: T1, extracellular domain of the IL-4Rα …; assay: biosensor (BIA2000), IL4BP immobilised on a streptavidin matrix, room temperature

B1: Model 2 (peptide)
peptide: Ac-RMKQLEDKVERLLSRNYRLENEVARLKKLVG-NH2
modifications: not fully specified
notes: Synthetic peptide derived from the GCN4 leucine zipper, designed to form a non-covalent parallel coiled-coil dimer
[1]
  Kd: 4.08 mM
[2]
  Kd: 4.08 mM

B2: Model 1 (peptide)
peptide: Ac-RMKQLEDKVEELLSKNYRLENRVARLEKLVG-NH2
modifications: also: designed to form non-covalent parallel coiled-coil dimer
notes: as for B1
[3]
  binding result: no binding
